Results published in article doi:10.1101/435008 (bioRxiv, 2019).

Target: the molecule itself
Assay: SEC

B1: unphosphorylated kinase domain of With No Lysine(K) kinase-3 (WNK3) (domain or fragment)
chain: not shown
With B1 the “stoichiometry N” value was 2.
